Laboratory results reported in the nanobody polyreactivity screen of Harvey et al. (2022).

Assay: yeast display, Sf9 membrane polyspecificity reagent, FACS + sequencing; frameworks hold sequencing errors
Procedure, shortened: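 Nanobodies from a synthetic yeast display library (Saccharomyces cerevisiae BJ5465), induced 36–48 hours with galactose, were stained 1 hour at 4 °C with 10% biotinylated, detergent-solubilized Sf9 membrane reagent, enriched on streptavidin microbeads, then FACS-sorted. Anti-HA (expression) and streptavidin (reagent binding) fluorescence set low and high (top ~1%) gates. Polyreactivity labels come from the gate of origin. Genes were colony-PCR amplified, MiSeq 2 × 250 sequenced and filtered by CDR length.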

| Sequence | polyreactivity (PSR sort gate) |
| --- | --- |
| QVQLVESGGGLVQAGGSLRLSCAASGSIFRRYAMGWYRQAPGKERELVAAISTRGGSTYYADSVKGRFTISRDNAKNTVYLQMNSLKPEDTAVYYCAVKGSGGPKYDYWGQGTQVTVAS | high polyreactivity |
| QVQLVESGGGLVQARGSLRLSCAASGYIFAVYAMGWYRQANGKERELVAAITWSGGRTYYADSVKGRFTISLDNAKNTVYLQMNSLKPEDTAVYYCNARARSRKFYYWGQGTQVTVSS | high polyreactivity |
| QVQLVESGGGLVQAGGSLRLSCAASGSTFFNYAMGLYRQAPGKERELVAAITSVGSTYYADSVKGRFTISRDNAKYTVYLQMNSLKPEDTAVYYCNAESYFWDFYDYDHWGQGTQVTVSS | low polyreactivity |
| QVQLVESGGGLVQAGGSLRLSCAASVFTFSRYAMGWYRQAPGKERELVAAITRGGGNTYYADSVKGRFTISRDNAKNTVYLQMHSLNPEDTAVFYCNAQVGNFGYRSGGYDYWGQGTQVTVSS | high polyreactivity |
| QFQLVESGGGLVQAGGSLRLSCAASGRIYGLYAKGWYRQAPGKERELVAAISSTGGRTFYADSVKGRFTISRDNAKNTVYFQMNSLKPDDTAVYYCAAYRYSRYRQRYNYCGQGTQVTVSS | high polyreactivity |
| QVQLVESGGGLGQAGGSLRLSCAASGRTFLFNAMGWYRQAPGKDRELVAAISSGGGSTYYADSVKGRFTISRDNAKNTDYLEMNSLKPEDTAVYFCAAYPYYYRYNYWGQGTQVTVSS | high polyreactivity |
| QVQLVESGGGLVQAGGSLRLSCAASGRTFTTNAMGSYRQAPGKERELVAAITIGDDTYYADSVKGRFTISRDNAKNTVYLQMNSLKPEDTAVYYCAADYKRVPFVTQYVSKDGYWGQGTQVTVSS | low polyreactivity |
| QVQLVESGGGLVQAGGSLRLSCAASGSTFRQYAMGWYRQAPGKERELVAAISSGGRTNYADSVKGRFTISRDNAKNTVYLQMNSLKPEDTAVYYCAADIRRRVPVRGYYYWGQGTQVTVSS | high polyreactivity |
| QVQLVESAAGLVQAGGSLRLSCADSGSTIYRYAMGWYRQAPGKERELVAAISTTGGSTFYADSVKGRFTISRDNAKNTVYLQMNSLKPEDTAVYYCNAYYRGTYDYWGQGTQVTVSS | high polyreactivity |
| QVQLVESGGGLVQAGGSLRLSCAASGRIFSRYVMGWYRQAPGKERELVAAISWNGGSTYYADSVKGRFRISRDNAKNTVYLQMNSLKPEDTAVYYCAARVRVTGTYYTKYDYWGQGTQVTVSS | high polyreactivity |
| QVQLVESGGALVQAGGSLRLSCAASGSIFGEYTMGWYRQAPGKEWELVAAIRSGGDTYYADSVKGRFTLSRDKAKNTVYLQMNSLKPEDTAVYYCNAYWVRHYIMDYWGQGTQVTVSS | low polyreactivity |
| QVQLVESGGGLVHAGGSLRLSCAASGSIFRVYTMGWYRQAPGKERELVAAISRSGGRTYYADSVKGRFTISRDNAKNTVYLQMNSLKPEDTAVYYCATRPKVAYEYDYWGQGTQVTVSS | high polyreactivity |
| QVQLVESGGGLVQAGGSLRLICAASGSTFYDNTMGWYRQAPGKERELVAAISSGGGTYYADSVKGRFTISRDNAKNTVYLQMNSLKPEDTSVYYCNADQTAYGKPGRAYGFDYWGQGTQVTVSS | low polyreactivity |
| QVQLVESGGGLVQAGGSLRLSCAASGRTFRSYAMGWYRQAPGKERELVAAISSGTSTDYADSVKGRFTISRDNAKNTVYLQMNSLKPEDTAVYYCAYDYWGQGTQVTVSS | low polyreactivity |
| QVQLVESGGGLVQAGGSLRLSCAASGSILADYAMGWYRQGPGKERELVAGISSGGSTNYADSVKGRFTITGDNAKNTVSLQMNSLKPEDTAVYYCNADQDFLFIGYLFDYWGQGTQVTVSS | low polyreactivity |
| QVQLVESGGGLVQAGGSLRLSCAASGIIFQYYVMGWYRQAPGKERELVAAIDKSGGSTYYADSVKGRFTISRDNAKNTVYLQMNSLKPEDTAVYYCAATSYAHKYYGYFGAIKYEYWGQGTQVTVSS | low polyreactivity |

| Sequence | polyreactivity (PSR sort gate) |
| --- | --- |
| QVQLVESGGGLVQAGGSLRLSCAASGSIFKRYARGWYRPAPGKERELVAAISWSGGNTYYADSVKGRFTISRDNSKNTVYLQMNSLKPEDTAVYYCAKRYRGGYYYPYNYWGQGTQVTVSS | high polyreactivity |
| QVQLLESGGGLVQAGGSLRLSCAASGYTFARYAMGWYRQAPGQERELVAAITSSGGSTYYADSVKGRFTISRDNAKNTVYLQMNSLKPEDTAVYYCNARGFQKSDPRGYLILNYWGQGTQVTVSS | high polyreactivity |
| QVQLVESGGGLVQAGGSLRLSCAASGSIFFPNAMGWYRQAPGKERELVAAITSTSTNYADSVKGRCTISRDNAKNTVYLQMNSLKPEDTAVYYCAADGEFRRAWYEGDYWGQGTQVTVSS | low polyreactivity |
| QVQLVESGGGLVQAGGSLRLSCAASGSIFALYAMGWYRQAPGKERELVAAISRRGGRTYYADSVKGRFTISRDNAKNTVYLQMNSLIPEDTAVYYCNARGYNVPHPNRYDYWGQGTQVTVSS | high polyreactivity |
| QVQLVESGGGLVQAGGSLRLSCAASGRIFSIYGMGWYRQAPGKERELVAVISGSVGITYYADSVKGRFTISRDNAKNTVYLQMNSLKPEDTAVYYCNAKFRRRKYDYWGQGTQVTVSS | high polyreactivity |
| QVQLVESGGALVQAGGSLRLSCAASGFTFTINDMGWYRQAPGKERELVATINDSAGSTYYADSVKGRFTISRDNAKNTVYLQMNSQKPDATAVYYCNAYKATRWFEYVYWGQGTQVTVSS | low polyreactivity |
| QVQLVESGGGLVQAGGSLRLSWAASGRIFGRYTMGWYTQAPGKERELVAAISSAGSTNYADSVKGRFTISRDNAKNTVYLQMNSLKPEDTAVYYCNRAKYVRYSLHYLGYARDYWGQGTQVTVSS | high polyreactivity |
| QVQLVESGGGLVQAGGSLRLSCAASGRIFYSYAMGCSRQAPGKERELVAAITRGGRTKYADSVKGRFTISRDNEKNTVYLQMNSLKPEDTAVYYCAAVKFYTEYNQYDYWGQGTQVTVSS | high polyreactivity |
| QVQLVESGGGLVQAGGSLRLSCAASGSIFFGYGMGWYRQAPGKERELVATITTSGGTYYADSVKGRFTISRDNAKNTVYLQMNSLKPEDTAVYYCNKEDYGLYPYYVSVGYDYWGQGTQVTVSS | low polyreactivity |
| QVQLVESGGGLVQAGGSLRLSCAASGSTFISYAMGWSRQAPGKERELVAAISSSTGRTYYADSVKGRVTISRDNAKNTVYLQMNSLKPEDTAVYYCNAVHRYERDYWGQGTQVTVSS | high polyreactivity |
| QVQLVESGGGLVQAGGSLRLSCAASGSILYIYAMGWYRQAPGKERELVAAITSSVGRTYYADSVKGRFTISRDNAKNTVYLQMNSLKPEDTAVYYCAAEYYYSQVAYDYWGQGTQVTVSS | high polyreactivity |
| QVQLVESGGGLVQAGGSLRLSCAASGLILPYYAMGWYSQARGKERELVAAISRTGGRTSYADSVKVRFTISRDNAKNTVYLLINSLKPEDTAVYYCAAVGQSGGRRYDYWGQGTQVTVSS | high polyreactivity |
| QDQHVESGGGLVQAGGSLRLSCDASGFIFSYYTMGCYRQAPGKERELVAAIRSSGGSTYADSVKGRFTISRDNAKNTVYLQMTSLKPEDTAVYYCAAVQTWRWVYARDYWGQGTQVTVSS | high polyreactivity |
| QVQLVESGGGLVQAGGSLRLSCAASGFTFSSYAMGWYRQAPGKERELVAAITGGGSRTYYADSVKGRFTISRDNAKNTVYLQMYSLKPEDTAVYYCAKGLSTGRAYRGYDYWGQGTQVTVSS | high polyreactivity |
| QVQLEESGGGLVQAGGSLRLSCAAYGGIFGYYPMGWYRQATGKERELVAAINYSGGSTYYADSVKGRFTISRDNSKNTVYLQMNSLKPEVTAVYYCAKRSYGGTLHYAFDSWGQGTQVTVSS | low polyreactivity |
| QVQLVESGGGLVQAGGSLRLSCAASGYIFQRDAMGWYRTAPGKEREFVAAIRYSGGSTYYADSVKGRFTISRDNAKNTVYLQMNCLKPEDTAVYYCAADQRDPWRSAYGYYYWGQGTQVTVSS | high polyreactivity |
